How the values were obtained:
Conditions in all cases: protein: recombinant; tags: N-terminal His6 removed by TEV (leaves SM); blunt
Etv1 Y395F [1] = target: T1, Etv1 Y395F (human, UniProt P50549 326-429, Y395F); assay: EMSA; 2 nM probe; 10 mM TCEP; saturates at 60% of probe; EMSA: 50 mM Tris-HCl pH 7.5, 50 mM NaCl, 2 mM MgCl2, 0.01% Tween 20, 5% glycerol, 1 h at room temperature; proteins reduced with 10 mM TCEP unless stated; 10% native PAGE
Etv1 S334E [2] = target: T2, Etv1 S334E (human, UniProt P50549 326-429, S334E); assay: EMSA; 2 nM probe; 10 mM TCEP; saturates at 35% of probe; EMSA: 50 mM Tris-HCl pH 7.5, 50 mM NaCl, 2 mM MgCl2, 0.01% Tween 20, 5% glycerol, 1 h at room temperature; proteins reduced with 10 mM TCEP unless stated; 10% native PAGE
T2 sequence (P50549 326-429 S334E): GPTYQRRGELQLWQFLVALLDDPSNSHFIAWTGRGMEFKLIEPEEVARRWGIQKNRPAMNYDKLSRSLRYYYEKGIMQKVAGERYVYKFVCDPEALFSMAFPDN

[3] = target: T3, Etv1 Ets domain WT (reduced monomer) (human, UniProt P50549 326-429); assay: EMSA; 2 nM probe; 10 mM TCEP; EMSA: 50 mM Tris-HCl pH 7.5, 50 mM NaCl, 2 mM MgCl2, 0.01% Tween 20, 5% glycerol, 1 h at room temperature; proteins reduced with 10 mM TCEP unless stated; 10% native PAGE
T3 sequence (P50549 326-429): as the sequence (P50549 326-429 S334E) above, with E9S counted along it

Etv1 R391A [4] = target: T4, Etv1 R391A (human, UniProt P50549 326-429, R391A); assay: as above
T4 sequence (P50549 326-429 R391A): as the sequence (P50549 326-429 S334E) above, with E9S, R66A counted along it

Etv1 Y329S-P427S [5] = target: T5, Etv1 Y329S-P427S (human, UniProt P50549 326-429, Y329S;P427S); assay: as above
T5 sequence (P50549 326-429 Y329S/P427S): as the sequence (P50549 326-429 S334E) above, with Y4S, E9S, P102S counted along it

Etv1 K379A = Etv1 K379A (human, UniProt P50549 326-429, K379A); assay: EMSA; 2 nM and 0.1 nM probe; EMSA: 50 mM Tris-HCl pH 7.5, 50 mM NaCl, 2 mM MgCl2, 0.01% Tween 20, 5% glycerol, 1 h at room temperature; proteins reduced with 10 mM TCEP unless stated; 10% native PAGE
Chain of Etv1 K379A (P50549 326-429 K379A): as the sequence (P50549 326-429 S334E) above, with E9S, K54A counted along it

Etv1 S334E [6] = target: T2, Etv1 S334E; assay: EMSA; 0.1 nM probe; 10 mM TCEP; EMSA: 50 mM Tris-HCl pH 7.5, 50 mM NaCl, 2 mM MgCl2, 0.01% Tween 20, 5% glycerol, 1 h at room temperature; proteins reduced with 10 mM TCEP unless stated; 10% native PAGE
[7] = target: T3, Etv1 Ets domain WT (reduced monomer); assay: as above
Etv1 R391A [8] = target: T4, Etv1 R391A; assay: as above
Etv1 Y395F [9] = target: T1, Etv1 Y395F; assay: as above
Etv1 D387A = Etv1 D387A (human, UniProt P50549 326-429, D387A); assay: as above
Chain of Etv1 D387A (P50549 326-429 D387A): as the sequence (P50549 326-429 S334E) above, with E9S, D62A counted along it

Etv1 Y329S-P427S [10] = target: T5, Etv1 Y329S-P427S; assay: as above
Etv4 Ets domain = Etv4 Ets domain (human, UniProt P43268 338-470); assay: EMSA; 10 mM TCEP; probe 0.1 nM (Table 3) or 0.2 nM (Fig. 9); EMSA: 50 mM Tris-HCl pH 7.5, 50 mM NaCl, 2 mM MgCl2, 0.01% Tween 20, 5% glycerol, 1 h at room temperature; proteins reduced with 10 mM TCEP unless stated; 10% native PAGE
Chain of Etv4 Ets domain (P43268 338-470): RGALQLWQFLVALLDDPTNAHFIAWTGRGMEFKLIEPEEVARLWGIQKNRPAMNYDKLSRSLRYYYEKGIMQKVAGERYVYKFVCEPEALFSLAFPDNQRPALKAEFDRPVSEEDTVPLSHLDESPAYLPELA

Etv5 Ets domain = Etv5 Ets domain (human, UniProt P41161 365-462); assay: as above
Chain of Etv5 Ets domain (P41161 365-462): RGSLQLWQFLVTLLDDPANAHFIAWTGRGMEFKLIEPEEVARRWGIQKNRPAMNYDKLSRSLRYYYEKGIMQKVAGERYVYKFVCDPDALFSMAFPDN

Etv1 Y397F = Etv1 Y397F (human, UniProt P50549 326-429, Y397F); assay: EMSA; 2 nM probe; undetectable or below regression threshold; EMSA: 50 mM Tris-HCl pH 7.5, 50 mM NaCl, 2 mM MgCl2, 0.01% Tween 20, 5% glycerol, 1 h at room temperature; proteins reduced with 10 mM TCEP unless stated; 10% native PAGE
Chain of Etv1 Y397F (P50549 326-429 Y397F): as the sequence (P50549 326-429 S334E) above, with E9S, Y72F counted along it

T1 sequence (P50549 326-429 Y395F): as the sequence (P50549 326-429 S334E) above, with E9S, Y70F counted along it

B1: Etv1ALF/Etv1ALR EMSA probe (dsDNA)
DNA 1: ATCTCACCGGAAGTGTAGCA
DNA 2: TGCTACACTTCCGGTGAGAT
Etv1 Y395F [1]
  Kd: 230 ± 50 pM
Etv1 S334E [2]
  Kd: 890 ± 320 pM
[3]
  Kd: 270 ± 28 pM
Etv1 R391A [4]
  Kd: 11800 ± 1480 pM
Etv1 Y329S-P427S [5]
  Kd: 250 ± 26 pM
Etv1 K379A
  binding result: no binding
Etv1 S334E [6]
  Kd: 940 ± 510 pM
[7]
  Kd: 590 ± 150 pM
Etv1 R391A [8]
  Kd: 8600 ± 1680 pM
Etv1 Y395F [9]
  Kd: 1350 ± 1050 pM
Etv1 D387A
  Kd: 190 ± 30 pM
Etv1 Y329S-P427S [10]
  Kd: 310 ± 60 pM
Etv4 Ets domain
  Kd: 340 ± 66 pM
Etv5 Ets domain
  Kd: 1160 ± 110 pM
Etv1 Y397F
  binding result: no binding

From publication PMC4447949, “Structures of the Ets Protein DNA-binding Domains of Transcription Factors Etv1, Etv4, Etv5, and Fev” (The Journal of Biological Chemistry, 2015)
